We go through one molecule from article PMC5946489, “Inactivation of the tight junction gene CLDN11 by aberrant hypermethylation modulates tubulins polymerization and promotes cell migration in nasopharyngeal carcinoma”.

For the series, the target named is GST-GATA1 (UniProt P15976 1-413). In words: EMSA; GATA1 antibody used for supershift; Pull-down: probes immobilised on M-280 beads in 5 mM Tris-HCl pH 7.5, 0.5 mM EDTA, 1 M NaCl; 100 ug nuclear extract; washes in binding buffer (composition not given) with 0.5% NP40. EMSA as described previously (ref. 9); temperature not stated. To be noted: protein: commercial; tags: GST; label: 5'-biotin; blunt. A general note: Mobility shift assays separate free from complexed probe on a gel.
Sequence of GST-GATA1 (P15976 whole entry): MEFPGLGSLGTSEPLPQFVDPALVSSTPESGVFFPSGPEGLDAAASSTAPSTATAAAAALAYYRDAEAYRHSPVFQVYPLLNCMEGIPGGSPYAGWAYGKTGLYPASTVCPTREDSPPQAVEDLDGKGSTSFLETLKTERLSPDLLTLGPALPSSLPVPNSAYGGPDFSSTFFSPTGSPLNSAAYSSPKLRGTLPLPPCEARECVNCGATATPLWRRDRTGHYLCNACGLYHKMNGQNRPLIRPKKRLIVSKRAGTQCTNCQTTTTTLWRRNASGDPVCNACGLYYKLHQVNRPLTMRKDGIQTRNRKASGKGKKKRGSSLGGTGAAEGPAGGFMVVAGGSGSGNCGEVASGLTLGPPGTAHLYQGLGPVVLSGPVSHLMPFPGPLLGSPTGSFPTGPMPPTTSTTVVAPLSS

B1: GATA1/2 WT probe (dsDNA)
DNA 1: CTGCCGCCGATTGGTGCTCGC
DNA 2: GCGAGCACCAATCGGCGGCAG
For B1, the binding result is “binds”.
